Test results: US20240084003A1 (SIMCERE ZAIMING PHARMACEUTICAL, published 2024)
Substitutions are numbered along the chain they refer to.

T1: monkey CD22 (full length, on HEK293T cells) (monkey)
T1 construct: NCBI XP_014979161.2; also called HEK293T-monkey CD22; HEK293T cells overexpressing monkey CD22
T1 chain: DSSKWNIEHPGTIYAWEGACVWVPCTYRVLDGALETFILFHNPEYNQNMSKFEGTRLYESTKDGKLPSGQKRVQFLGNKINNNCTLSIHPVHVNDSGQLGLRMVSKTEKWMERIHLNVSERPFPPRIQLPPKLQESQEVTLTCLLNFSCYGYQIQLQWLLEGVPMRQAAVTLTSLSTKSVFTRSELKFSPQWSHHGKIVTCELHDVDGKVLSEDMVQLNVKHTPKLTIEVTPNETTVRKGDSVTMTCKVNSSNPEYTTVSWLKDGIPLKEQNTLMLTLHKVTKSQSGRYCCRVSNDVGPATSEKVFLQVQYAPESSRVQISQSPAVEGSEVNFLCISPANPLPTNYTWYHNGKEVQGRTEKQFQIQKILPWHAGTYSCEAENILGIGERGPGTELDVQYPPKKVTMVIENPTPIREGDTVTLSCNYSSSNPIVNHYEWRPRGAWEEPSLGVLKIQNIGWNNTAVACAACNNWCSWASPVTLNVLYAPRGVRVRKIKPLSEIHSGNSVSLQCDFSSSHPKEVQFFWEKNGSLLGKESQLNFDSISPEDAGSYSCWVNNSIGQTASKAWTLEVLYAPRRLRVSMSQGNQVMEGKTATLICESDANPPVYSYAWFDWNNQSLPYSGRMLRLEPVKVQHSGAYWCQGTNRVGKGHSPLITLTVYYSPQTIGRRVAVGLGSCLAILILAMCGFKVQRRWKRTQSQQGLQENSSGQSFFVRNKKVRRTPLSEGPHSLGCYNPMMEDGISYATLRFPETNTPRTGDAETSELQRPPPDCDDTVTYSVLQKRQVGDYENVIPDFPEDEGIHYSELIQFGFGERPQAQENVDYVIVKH

B1: F2.343.16 (antibody, human IgG1, lambda, V domains shown)
VH: QVQLKQSGPGLVQPSQSLSITCTVSGFSLTGYGVQWVRQSPGKGLEWLGVIWGGGGTDYNAAFISRLNIIKDNSKSQVFFKMNSLQADDTAIYYCARYSKYGHFDVWGTGTAVTVSS
VL: QAVVTQESALTTSPGETVTLTCRSSTGAVTTSNYANWVQEKPDHLFTGLIGGTYNRVPGVPARFSGSLIGDKAALTITGAQTEDEAIYFCALWYSNHFWVFGGGTKLTVLG
notes: Human-murine chimeric IgG1, lambda
B2: F1.280.1 (antibody, human IgG1, kappa, V domains shown)
VH: QIQLVQSGPELKKPGETVKISCKASGYTFTTYGMSWVKQTPGKGLTWMGWINTDSGVPTYADDFKRRFAFSLEASATTAYLQINNLKNEDTATYFCARGGPDYWGQGTTLTVSS
VL: DILLTQSPATLSVTPGETVSLSCRASQSIYKNLHWYHQKSHRSPRLLIKYASDSISGIPSRFTGSGSGTNFTLSINSVKPEDEGIYYCLQGYIVPLTFGAGTKLELKR
notes: Human-murine chimeric IgG1, kappa
B3: F1.60.9 (antibody, human IgG1, kappa, V domains shown)
VH: QVQLKESGPGLVAPSQSLSITCTVSGLSLNNYGVSWVRQPPGKGLEWLGVIWGDGSTNYHSALISRLSISKDNSKSQVFLKLNSLHTDDTATYYCAINWGDYWGQGTTLIVSS
VL: DIKMTQSPSSMNASLGERVTITCKASQDINSYLSWFQQKPGKSPKILIYRANRLIDGVPSRFSGSGSGQDYSLTISSLEYEDMGIYYCLQYGVFPLTFGAGTKLELKR
notes: as for B2
B4: F1.257.3 (antibody, human IgG1, kappa, V domains shown)
VH: QVQLQQSGPELARPGASVKLSCKASGYTFTSYGISWVKQRTGQDLEWIGEIYPKLGTTYYNEKFKDKATLTTDRSSSTAYMALRSLTSEDSAVYFCACPHYYATRGGDYWGQGTTLTVSS
VL: EIVLTQSPATLSVTPGDSVTFSCRASQSISNHLHWYQQKSHESPRLLIRYASQSISGIPSRFSGSGSGTDFTLSLSSVETEDFGVYFCQQSHSWPYTFGGGTKLEIAR
notes: as for B2
B5: F2.70.2 (antibody, human IgG1, lambda, V domains shown)
VH: EVQLVESGGGLVKPGGSLKLSCAASGFTFSDYGMNWFRQAPEKGLEWVAYISRGSHTIYYADTVKGRFTISRDNAKNTLFLQMTSLRSNDTAMYYCVRMAGYYAMDYWGQGTSVTVSS
VL: QLVLTQSSSASFSLGASAKLTCTLSSQHSSYIIEWYQQQPLKPPKYVMELKKDGSHSTGDGIPDRFSGSSSGADRYLSISNIQPEDEAIYICGVGDTIKEQFVYVFGGGTKVTVLG
notes: as for B1
B6: F2.180.16 (antibody, human IgG1, lambda, V domains shown)
VH: EVKLVESGGGLVLPGGSLKISCAASGFTFSDYYMYWIRQTPDKRLEWVAYISNTGYSTFYPDSVKGRFTVSRDNAKNTLYLQMSRLQSEDTAMYYCARHGILYAMDYWGQGTSVTVSS
VL: B5 VL with L2P, H28Y, S30T, I32T, E34G, K52H, H56R, S57H, I89T, V103M
notes: as for B1
B7: F2.104.10 (antibody, human IgG1, lambda, V domains shown)
VH: B5 VH with L11F, K76E, V114L
VL: B5 VL with L50V, P84S
notes: as for B1
B8: F1.245.2 (antibody, human IgG1, kappa, V domains shown)
VH: EVQLQQSGAELVKPGASVKLSCTGSGFNIKDYYIHWVKQRTEQGLEWMGRIDPEDGETEYAPKFQDEATITSDTSSNTAYLQLSSLTYEDTAVYYCAREAAGYFYRGSSYGYFDVWGTGTTVTVSS
VL: DFQMTQTTSFLSASLGDRVTISCSASQDISNYLNWYQQKPDGTVKLLIYYTSSLHSGVPSRFSGSGSGTDYSLTISNLEPEDIATYYCQQYSMLPYTFGGGTKLEMER
notes: as for B2

Target: T1, monkey CD22 (full length, on HEK293T …)
Assay: FACS on HEK293T-monkey CD22 cells
Excerpt: The required cells were scale-up cultured in a T-75 cell culture flask to the logarithmic growth phase. For the adherent cell CHO-K1, the medium was aspirated, the cells were washed 2 times with PBS buffer, and then digested with trypsin. After the digestion was terminated, the cells were washed 2 times with PBS buffer. For suspension cell Raji, the medium supernatant was directly centrifuged and discarded, and the cell pellet was washed 2 times with PBS. After counting the cells in the previous step, the cell pellet was resuspended with [PBS+2% (w/w) BSA] blocking solution to 2×10⁶ cells/ml, and added to a 96-well FACS reaction plate at 50 μl/well, and then the chimeric antibody test sample was added at 50 μl/well, and incubated on ice for 2 hours. The mixture was centrifuged and washed 3 times with PBS buffer, Alexa Flour 488-labeled secondary antibody (purchased from Invitrogen, catalog number: A-11013) was added at 50 μl/well, and incubated on ice for 1 hour. The obtained mixture was centrifuged and washed 5 times with PBS, and FACS (FACS Canto™, purchased from BD Company) was used for detection and result analysis. Data analysis was performed by software (CellQuest) to obtain the mean fluorescence density (MFI)of the cells. And then software (GraphPad Prism8) was used for analysis, data fitting, and EC50 value calculation. […]

binding result	Binder
no binding	B1
no binding	B2

Target: T1, monkey CD22 (full length, on HEK293T …)
Assay: FACS, HEK293T-monkey CD22 cells (293T as parent cells)
Excerpt: The required cells were scale-up cultured in a T-75 cell culture flask to the logarithmic growth phase. For the adherent cell CHO-K1, the medium was aspirated, the cells were washed 2 times with PBS buffer, and then digested with trypsin. After the digestion was terminated, the cells were washed 2 times with PBS buffer. For suspension cell Raji, the medium supernatant was directly centrifuged and discarded, and the cell pellet was washed 2 times with PBS. After counting the cells in the previous step, the cell pellet was resuspended with [PBS+2% (w/w) BSA] blocking solution to 2×10⁶ cells/ml, and added to a 96-well FACS reaction plate at 50 μl/well, and then the chimeric antibody test sample was added at 50 μl/well, and incubated on ice for 2 hours. The mixture was centrifuged and washed 3 times with PBS buffer, Alexa Flour 488-labeled secondary antibody (purchased from Invitrogen, catalog number: A-11013) was added at 50 μl/well, and incubated on ice for 1 hour. The obtained mixture was centrifuged and washed 5 times with PBS, and FACS (FACS Canto™, purchased from BD Company) was used for detection and result analysis. Data analysis was performed by software (CellQuest) to obtain the mean fluorescence density (MFI)of the cells. And then software (GraphPad Prism8) was used for analysis, data fitting, and EC50 value calculation. […] The same method was used to detect the binding of the chimeric antibodies to endogenous CD22-negative cell MoLT4 cells (purchased from ATCC, CRL-1582) and CHO-K1 cells.
HEK293T-monkey CD22 cells were subjected to FACS detection and data analysis according to the method in Example 5.2.

binding result	Binder
no binding (tested: 10 nM)	B3
no binding (tested: 10 nM)	B4
no binding (tested: 10 nM)	B5
no binding (tested: 10 nM)	B6
no binding (tested: 10 nM)	B7
no binding (tested: 10 nM)	B8
